This note sets out measurements from patent US20250011379A1.

Chain of Const. No. 66: HSA-GGSSGG-hCFI-GGSSGG-hCR1; CCP8; CCP9; CCP10-(SEQ ID NO: 33)-hFH; CCP19; CCP20 (P17927 other isoform, or with tags, fused parts or gaps limits assumed): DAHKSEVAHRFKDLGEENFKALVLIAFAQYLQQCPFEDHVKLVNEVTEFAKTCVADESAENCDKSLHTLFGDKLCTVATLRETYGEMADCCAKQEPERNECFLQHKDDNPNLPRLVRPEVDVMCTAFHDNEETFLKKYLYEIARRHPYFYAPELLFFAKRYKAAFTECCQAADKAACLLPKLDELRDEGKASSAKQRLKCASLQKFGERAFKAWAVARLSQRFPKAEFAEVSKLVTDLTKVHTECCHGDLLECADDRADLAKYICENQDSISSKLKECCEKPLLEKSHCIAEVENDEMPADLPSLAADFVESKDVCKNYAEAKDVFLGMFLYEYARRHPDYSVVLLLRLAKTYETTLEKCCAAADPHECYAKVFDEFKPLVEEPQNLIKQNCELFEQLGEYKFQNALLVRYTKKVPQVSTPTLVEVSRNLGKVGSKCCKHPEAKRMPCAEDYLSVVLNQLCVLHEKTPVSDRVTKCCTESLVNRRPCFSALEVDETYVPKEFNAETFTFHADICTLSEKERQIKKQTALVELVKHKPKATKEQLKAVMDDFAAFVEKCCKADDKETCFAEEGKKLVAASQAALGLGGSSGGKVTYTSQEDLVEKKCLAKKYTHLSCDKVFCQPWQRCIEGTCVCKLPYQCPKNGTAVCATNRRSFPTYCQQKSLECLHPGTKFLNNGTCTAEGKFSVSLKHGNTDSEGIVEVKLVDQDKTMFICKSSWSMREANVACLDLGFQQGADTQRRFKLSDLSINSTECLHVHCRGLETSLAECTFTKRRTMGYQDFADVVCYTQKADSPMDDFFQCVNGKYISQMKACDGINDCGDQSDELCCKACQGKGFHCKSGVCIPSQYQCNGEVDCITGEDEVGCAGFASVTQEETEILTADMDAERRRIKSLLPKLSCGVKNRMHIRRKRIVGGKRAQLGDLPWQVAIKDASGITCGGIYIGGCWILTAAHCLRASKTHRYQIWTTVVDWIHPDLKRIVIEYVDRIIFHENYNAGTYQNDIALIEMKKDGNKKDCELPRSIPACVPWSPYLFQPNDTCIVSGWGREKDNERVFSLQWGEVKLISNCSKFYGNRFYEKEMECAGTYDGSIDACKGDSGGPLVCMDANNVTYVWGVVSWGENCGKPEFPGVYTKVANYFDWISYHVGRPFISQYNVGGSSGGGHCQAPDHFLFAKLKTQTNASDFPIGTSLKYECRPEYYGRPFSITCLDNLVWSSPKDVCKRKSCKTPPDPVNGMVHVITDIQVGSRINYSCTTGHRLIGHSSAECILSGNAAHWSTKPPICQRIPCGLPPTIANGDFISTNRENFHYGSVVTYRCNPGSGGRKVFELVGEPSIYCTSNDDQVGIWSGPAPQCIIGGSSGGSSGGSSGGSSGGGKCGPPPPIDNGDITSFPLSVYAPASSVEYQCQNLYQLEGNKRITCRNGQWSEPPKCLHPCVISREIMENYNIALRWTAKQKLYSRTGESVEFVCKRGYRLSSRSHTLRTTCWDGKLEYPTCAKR

In one assay the target is human C4b (human) (UniProt P0C0L5). Briefly: cell-based or functional assay.
Chain of human C4b (human) (P0C0L5 20-1744): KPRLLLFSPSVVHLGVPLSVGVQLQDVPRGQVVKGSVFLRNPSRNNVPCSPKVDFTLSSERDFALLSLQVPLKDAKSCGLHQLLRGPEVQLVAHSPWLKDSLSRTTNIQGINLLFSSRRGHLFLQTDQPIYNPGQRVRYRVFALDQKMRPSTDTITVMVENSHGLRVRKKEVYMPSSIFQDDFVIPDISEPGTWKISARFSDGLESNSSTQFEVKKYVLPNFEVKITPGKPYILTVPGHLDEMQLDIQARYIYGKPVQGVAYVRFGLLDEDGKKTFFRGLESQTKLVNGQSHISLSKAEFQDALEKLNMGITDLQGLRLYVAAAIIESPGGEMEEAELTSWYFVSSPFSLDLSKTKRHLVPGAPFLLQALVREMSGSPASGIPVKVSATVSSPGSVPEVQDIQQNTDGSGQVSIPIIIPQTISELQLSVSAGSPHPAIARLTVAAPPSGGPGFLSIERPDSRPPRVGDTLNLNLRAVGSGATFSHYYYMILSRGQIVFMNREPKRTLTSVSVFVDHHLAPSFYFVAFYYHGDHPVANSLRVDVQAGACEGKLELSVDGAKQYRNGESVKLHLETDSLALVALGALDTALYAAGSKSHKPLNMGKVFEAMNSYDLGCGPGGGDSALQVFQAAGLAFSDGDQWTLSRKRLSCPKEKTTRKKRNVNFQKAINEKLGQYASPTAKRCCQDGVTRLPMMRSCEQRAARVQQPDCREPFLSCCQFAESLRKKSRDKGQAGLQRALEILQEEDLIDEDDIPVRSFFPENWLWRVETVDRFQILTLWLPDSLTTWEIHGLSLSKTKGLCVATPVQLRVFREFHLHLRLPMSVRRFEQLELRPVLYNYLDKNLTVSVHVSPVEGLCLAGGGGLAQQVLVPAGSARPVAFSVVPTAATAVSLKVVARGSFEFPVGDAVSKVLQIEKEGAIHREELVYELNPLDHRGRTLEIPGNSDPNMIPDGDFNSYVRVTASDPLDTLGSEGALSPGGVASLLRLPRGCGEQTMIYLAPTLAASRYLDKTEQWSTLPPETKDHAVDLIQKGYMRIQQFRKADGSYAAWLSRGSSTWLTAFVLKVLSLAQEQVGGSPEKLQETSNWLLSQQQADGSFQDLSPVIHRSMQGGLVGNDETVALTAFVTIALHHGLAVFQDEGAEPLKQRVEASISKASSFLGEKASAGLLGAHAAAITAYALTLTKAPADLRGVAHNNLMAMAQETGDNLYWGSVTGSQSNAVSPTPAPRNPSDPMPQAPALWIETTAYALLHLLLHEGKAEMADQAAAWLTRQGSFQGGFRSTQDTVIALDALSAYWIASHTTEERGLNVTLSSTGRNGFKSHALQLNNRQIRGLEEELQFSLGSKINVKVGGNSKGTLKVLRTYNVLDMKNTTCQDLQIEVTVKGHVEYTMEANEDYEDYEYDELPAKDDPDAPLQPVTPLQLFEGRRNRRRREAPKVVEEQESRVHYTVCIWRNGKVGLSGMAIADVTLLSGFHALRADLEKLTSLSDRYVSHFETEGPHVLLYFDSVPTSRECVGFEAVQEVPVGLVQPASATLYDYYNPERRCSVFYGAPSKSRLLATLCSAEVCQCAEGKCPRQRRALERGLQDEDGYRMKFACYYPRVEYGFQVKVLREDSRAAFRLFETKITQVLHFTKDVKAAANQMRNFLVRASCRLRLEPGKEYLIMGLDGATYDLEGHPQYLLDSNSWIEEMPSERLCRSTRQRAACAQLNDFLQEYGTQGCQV
Take “Const. No. 74: HSA-…-Bovine CFI (enzyme)”: the C4c EC50 amounted to 47.1 nM. The substance Const. No. 73: HSA-…-Chimp CFI (enzyme) yielded a C4c EC50 of 1610 nM.

“Const. No. 71: HSA-…-Gorilla CFI (enzyme)” yielded a C4c EC50 of 679 nM.

The target of a further assay is soluble human C3b (human) (UniProt P01024). Briefly: cell-based or functional assay.
Chain of soluble human C3b (human) (P01024 23-1663 limits assumed): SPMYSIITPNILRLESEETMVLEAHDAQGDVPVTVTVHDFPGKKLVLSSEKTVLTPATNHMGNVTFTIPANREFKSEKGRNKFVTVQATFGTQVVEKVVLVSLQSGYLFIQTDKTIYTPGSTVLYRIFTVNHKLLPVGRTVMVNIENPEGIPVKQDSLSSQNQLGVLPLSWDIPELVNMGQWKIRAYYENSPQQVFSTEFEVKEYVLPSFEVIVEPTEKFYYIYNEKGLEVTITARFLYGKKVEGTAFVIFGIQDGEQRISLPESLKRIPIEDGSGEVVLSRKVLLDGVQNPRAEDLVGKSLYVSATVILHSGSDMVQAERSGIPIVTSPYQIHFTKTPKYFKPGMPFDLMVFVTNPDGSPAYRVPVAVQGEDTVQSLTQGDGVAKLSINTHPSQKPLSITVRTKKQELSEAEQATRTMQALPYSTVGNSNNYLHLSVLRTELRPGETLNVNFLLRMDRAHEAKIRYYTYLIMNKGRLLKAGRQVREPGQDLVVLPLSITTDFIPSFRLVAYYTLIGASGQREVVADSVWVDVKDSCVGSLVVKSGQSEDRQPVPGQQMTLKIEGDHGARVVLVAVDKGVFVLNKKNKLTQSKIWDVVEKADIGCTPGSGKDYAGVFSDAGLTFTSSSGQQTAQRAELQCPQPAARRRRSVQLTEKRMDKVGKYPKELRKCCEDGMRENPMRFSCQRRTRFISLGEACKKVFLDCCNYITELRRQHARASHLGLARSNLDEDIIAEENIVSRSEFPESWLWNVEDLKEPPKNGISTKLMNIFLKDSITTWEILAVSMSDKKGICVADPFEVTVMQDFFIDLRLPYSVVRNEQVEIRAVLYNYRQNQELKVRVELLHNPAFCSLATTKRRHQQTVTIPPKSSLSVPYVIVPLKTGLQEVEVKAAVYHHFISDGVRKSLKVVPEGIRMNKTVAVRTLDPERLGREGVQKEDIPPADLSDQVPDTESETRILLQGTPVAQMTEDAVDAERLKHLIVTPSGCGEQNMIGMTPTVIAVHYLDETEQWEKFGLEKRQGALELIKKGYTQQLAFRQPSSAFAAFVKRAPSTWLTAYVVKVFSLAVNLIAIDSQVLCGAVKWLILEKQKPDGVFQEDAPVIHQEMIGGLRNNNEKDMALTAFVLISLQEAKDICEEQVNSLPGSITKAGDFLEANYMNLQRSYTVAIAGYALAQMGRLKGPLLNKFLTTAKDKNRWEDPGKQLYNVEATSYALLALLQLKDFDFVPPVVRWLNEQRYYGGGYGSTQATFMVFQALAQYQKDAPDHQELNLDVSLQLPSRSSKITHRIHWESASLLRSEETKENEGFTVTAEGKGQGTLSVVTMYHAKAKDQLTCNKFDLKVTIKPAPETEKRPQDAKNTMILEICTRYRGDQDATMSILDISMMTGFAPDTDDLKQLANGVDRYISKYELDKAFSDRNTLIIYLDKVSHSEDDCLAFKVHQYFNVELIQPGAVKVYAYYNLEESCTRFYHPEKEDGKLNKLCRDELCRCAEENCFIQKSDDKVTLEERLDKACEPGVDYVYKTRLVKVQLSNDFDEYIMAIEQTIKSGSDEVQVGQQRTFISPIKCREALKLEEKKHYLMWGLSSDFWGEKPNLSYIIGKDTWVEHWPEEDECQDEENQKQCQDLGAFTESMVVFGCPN
Turning to “Const. No. 35: HSA-GGSSGG-hCFI; R371E (enzyme)”, the iC3b EC50 turned out to be 347 nM.

In turn, “Const. No. 74: HSA-…-Bovine CFI (enzyme)” came in with an iC3b EC50 of 5.79 nM.

Consider “Const. No. 26: HSA-GGSSGG-hCFI; E401K (enzyme)”, for which the iC3b EC50 came to 6.39 nM.

“Const. No. 49: HSA-GGSSGG-hCFI; Δ(V565) > VY (enzyme)” came in with an iC3b EC50 of 89.2 nM.

For “Const. No. 38: HSA-GGSSGG-hCFI; N52A (enzyme)”, the iC3b EC50 was determined as 39.8 nM.

For “Const. No. 29: HSA-GGSSGG-hCFI; E401F (enzyme)”, the iC3b EC50 was found to be 10.6 nM.

In the case of “Const. No. 4: HSA-GGSSGG-hCFI; L307H (enzyme)”, the iC3b EC50 was 21.4 nM.

Substance “Const. No. 2: HSA-GGSSGG-hCFI; F559H (enzyme)” registered an iC3b EC50 of 28.6 nM. As for “Const. No. 3: HSA-GGSSGG-hCFI; L307F (enzyme)”, the iC3b EC50 worked out at 18.9 nM.

On to “Const. No. 95: HSA linked with CFI (CFI-HSA), wild type (enzyme)”, for which the iC3b EC50 stood at 28.6 nM. The substance “Const. No. 48: HSA-GGSSGG-hCFI; Δ(V565) > VG (enzyme)” yielded an iC3b EC50 of 1000 nM.

“Const. No. 57: HSA-GGSSGG-hCFI; D395A; E416A (enzyme)” registered an iC3b EC50 of 17.5 nM.

As to “Const. No. 66: HSA-GGSSGG-hCFI-GGSSGG-hCR1; CCP8; CCP9; CCP10-(SEQ ID NO: 33)-hFH; CCP19; CCP20 (from UniProt P17927 491-684; P08603 1107-1231) (enzyme)”, the iC3b EC50 stood at 3.17 nM, the iC3b no cofactor EC50 worked out at 2.92 nM and the iC3b with cofactor EC50 amounted to 3.2 nM. Regarding “Const. No. 52: HSA-GGSSGG-hCFI; D395A (enzyme)”, the iC3b EC50 stood at 22.5 nM. In the case of Const. No. 73: HSA-…-Chimp CFI (enzyme), the iC3b EC50 stood at 54.6 nM. With “Const. No. 45: HSA-GGSSGG-hCFI; R484A (enzyme)”, the iC3b EC50 worked out at 61.1 nM. For the substance “Const. No. 54: HSA-GGSSGG-hCFI; D395K (enzyme)”, the iC3b EC50 was found to be 7.38 nM.

As to “Const. No. 70: HSA-…-Rat CFI (from UniProt Q9WUW3 19-604) (enzyme)”, the iC3b EC50 worked out at 17.5 nM. On to “Const. No. 55: HSA-GGSSGG-hCFI; D395R (enzyme)”, for which the iC3b EC50 was found to be 12.4 nM.

Substance “Const. No. 60: HSA-GGSSGG-hCFI; K368D (enzyme)” registered an iC3b EC50 of 156 nM. Turning to “Const. No. 40: HSA-GGSSGG-hCFI; T59E (enzyme)”, the iC3b EC50 amounted to 43.1 nM. The substance “Const. No. 27: HSA-GGSSGG-hCFI; E401R (enzyme)” yielded an iC3b EC50 of 6.26 nM. The substance “Const. No. 39: HSA-GGSSGG-hCFI; A55P (enzyme)” gave an iC3b EC50 of 31.4 nM. The substance “Const. No. 58: HSA-GGSSGG-hCFI; D395A; E416A; D425A (enzyme)” showed an iC3b EC50 of 8.15 nM. Still for that read-out and setting: the figure for “Const. No. 14: HSA-GGSSGG-hCFI; S499A (enzyme)” is 40.9 nM. The substance “Const. No. 71: HSA-…-Gorilla CFI (enzyme)” registered an iC3b EC50 of 32.7 nM. Still for that read-out and setting: the figure for “Const. No. 51: HSA-GGSSGG-hCFI; E416R (enzyme)” is 12.5 nM; for “Const. No. 34: HSA-GGSSGG-hCFI; H554K (enzyme)” it is 8.7 nM. The same measure, in the same setting: with “Const. No. 23: HSA-GGSSGG-hCFI; R62E (enzyme)” the figure was 156 nM. Still for that read-out and setting: with “Const. No. 72: HSA-…-Cyno CFI (from UniProt A0A650AXN4 19-583) (enzyme)” the figure was 3.12 nM; with “Const. No. 42: HSA-GGSSGG-hCFI; L73D (enzyme)”, 168 nM; with “Const. No. 53: HSA-GGSSGG-hCFI; D395G (enzyme)”, 20.7 nM. For the substance “Const. No. 41: HSA-GGSSGG-hCFI; L73F (enzyme)”, the iC3b EC50 was determined as 31.4 nM. The substance “Const. No. 6: HSA-GGSSGG-hCFI; L307Y (enzyme)” gave an iC3b EC50 of 34.7 nM. “Const. No. 47: HSA-GGSSGG-hCFI; R484E (enzyme)” displayed an iC3b EC50 of 154 nM. For the substance “Const. No. 50: HSA-GGSSGG-hCFI; E416K (enzyme)”, the iC3b EC50 is 12.8 nM. On the same count and under the same terms, the figure for “Const. No. 28: HSA-GGSSGG-hCFI; E401A (enzyme)” is 11.8 nM; for “Const. No. 5: HSA-GGSSGG-hCFI; L307W (enzyme)” it is 24.8 nM; for “Const. No. 92: HSA-GGSSGG-hCFI; N422A (enzyme)” it is 46.3 nM. Regarding “Const. No. 22: HSA-GGSSGG-hCFI; R62A (enzyme)”, the iC3b EC50 came to 102 nM. Still for that read-out and setting: with “Const. No. 7: HSA-GGSSGG-hCFI; P433A (enzyme)” the figure was 15.8 nM. In the case of “Const. No. 16: HSA-GGSSGG-hCFI; S499V (enzyme)”, the iC3b EC50 came to 85.6 nM. Turning to “Const. No. 37: HSA-GGSSGG-hCFI; K51R; N52A; A55P; T59M; R61G; F64Y (enzyme)”, the iC3b EC50 amounted to 20.3 nM. On the same count and under the same terms, with “Const. No. 91: HSA-GGSSGG-hCFI; T377A; E457G; N531G (enzyme)” the figure was 6.69 nM; with “Const. No. 21: HSA-GGSSGG-hCFI; K423R (enzyme)”, 30.5 nM. In turn, “Const. No. 33: HSA-GGSSGG-hCFI; H554F (enzyme)” had an iC3b EC50 of 16.4 nM.

For the substance “Const. No. 56: HSA-GGSSGG-hCFI; D395A; D425A (enzyme)”, the iC3b EC50 was determined as 9.67 nM. As to “Const. No. 59: HSA-GGSSGG-hCFI; N402D (enzyme)”, the iC3b EC50 stood at 24.9 nM. Take “Const. No. 36: HSA-GGSSGG-hCFI; A342R (enzyme)”: the iC3b EC50 was 13.1 nM.

Substance “Const. No. 15: HSA-GGSSGG-hCFI; S499K (enzyme)” returned an iC3b EC50 of 35.1 nM.
